From patent US20240034813A1 (Janssen / Centocor, published 2024)

How the values were obtained:
[1] = molecular target: T1, recombinant cMet/HGFR with c-terminal His-tag, Cy5-labeled (UniProt P08581 25-932, limits assumed, Cy5 label (reacted with Cy5 Mono NHS Ester; sites not stated)); experiment: competitive TR-FRET (Eu-amivantamab/Cy5-c-MET), EC50 ratio vs Reference Material; Ex. 3 acetate formulation, 6 months at 25 C then shaking up to 72 h
T1 construct: Commercial protein; also called Cy5-c-MET; Cy5-labeled c-MET antigen; not shown: C-terminal His-tag
Description: (§1) In this procedure, varying concentrations of unlabeled bispecific EGFR-cMet antibody sample compete with donor fluorophore (Europium (Eu) chelate) labeled bispecific EGFR-cMet antibody for binding to an acceptor fluorophore (Cy5)-labeled c-MET antigen. Excitation of the donor fluorophore results in a transfer of energy to the bound acceptor fluorophore (FRET process). The resultant FRET is detected by emission of light at 665 nm using a microplate reader capable of measuring time-resolved fluorescence. Sample dose response curves are compared to the Reference Material (RM).
(§2) c-MET Binding Materials and Methods. Certified commercial cMet, a recombinant cMet/HGFR with c-terminal His-tag is reacted with certified commercial Cy5 Mono NHS Ester to produce Cy5-labeled c-MET. Validated bispecific EGFR-cMet antibody is reacted with certified commercial Europium (Eu) chelate to produce Eu labeled bispecific EGFR-cMet antibody. […] Fluorescence is then measured by spectrophotometry at 665 nm, plotted against antibody concentration and analyzed by a four-parameter logistic model. The antibody concentration required to obtain half of the maximum fluorescence response (EC50) is determined for RM, assay control and samples. The potencies of assay control and samples are calculated based on the ratio of the sample (or control) and RM EC50 values and reported as a percentage activity relative to the RM.

[2] = molecular target: T2, recombinant human EGFR/ErbB1/HER1 with C-terminal His tag, Cy5-labeled (human, UniProt P00533 25-645, Cy5 label (reacted with Cy5 Mono NHS Ester; sites not stated)); experiment: competitive TR-FRET (Eu-amivantamab/Cy5-EGFR), EC50 ratio vs Reference Material; Ex. 11 drug product, 1 month at 40 C
T2 construct: Commercial protein; also called Cy5-EGFR; Cy5-labeled EGFR antigen; not shown: C-terminal His tag
Description: as §1, with “EGFR” for “c-MET”, “RM.” for “Reference Material (RM).”
as §2, with “EGFR” for “c-MET”, “EGFR,” for “cMet,”, “human EGFR/ErbB1/HER1” for “cMet/HGFR”, “C-terminal His tag” for “c-terminal His-tag”, “EGFR.” for “c-MET.”, “Eu-labeled” for “Eu labeled”

[3] = molecular target: T2, recombinant human EGFR/ErbB1/HER1 with …; experiment: competitive TR-FRET (Eu-amivantamab/Cy5-EGFR), EC50 ratio vs Reference Material; Ex. 12 drug product with rHuPH20, 0 months, 25 C table
Description: as §1, with “EGFR” for “c-MET”, “RM.” for “Reference Material (RM).”
as §2, with “EGFR” for “c-MET”, “EGFR,” for “cMet,”, “human EGFR/ErbB1/HER1” for “cMet/HGFR”, “C-terminal His tag” for “c-terminal His-tag”, “EGFR.” for “c-MET.”, “Eu-labeled” for “Eu labeled”

[4] = molecular target: T1, recombinant cMet/HGFR with c-terminal …; experiment: competitive TR-FRET (Eu-amivantamab/Cy5-c-MET), EC50 ratio vs Reference Material; Ex. 2 Formulation 1 (10 mM histidine), 3 months at 40 C
Description: as §1, §2

[5] = molecular target: T2, recombinant human EGFR/ErbB1/HER1 with …; experiment: competitive TR-FRET (Eu-amivantamab/Cy5-EGFR), EC50 ratio vs Reference Material; Ex. 11 drug product, 6 months at 25 C
Description: as §1, with “EGFR” for “c-MET”, “RM.” for “Reference Material (RM).”
as §2, with “EGFR” for “c-MET”, “EGFR,” for “cMet,”, “human EGFR/ErbB1/HER1” for “cMet/HGFR”, “C-terminal His tag” for “c-terminal His-tag”, “EGFR.” for “c-MET.”, “Eu-labeled” for “Eu labeled”

[6] = molecular target: T2, recombinant human EGFR/ErbB1/HER1 with …; experiment: competitive TR-FRET (Eu-amivantamab/Cy5-EGFR), EC50 ratio vs Reference Material; Ex. 2 Formulation 1 (10 mM histidine), 3 months at 40 C
Description: as §1, with “EGFR” for “c-MET”, “RM.” for “Reference Material (RM).”
as §2, with “EGFR” for “c-MET”, “EGFR,” for “cMet,”, “human EGFR/ErbB1/HER1” for “cMet/HGFR”, “C-terminal His tag” for “c-terminal His-tag”, “EGFR.” for “c-MET.”, “Eu-labeled” for “Eu labeled”

[7] = molecular target: T2, recombinant human EGFR/ErbB1/HER1 with …; experiment: competitive TR-FRET (Eu-amivantamab/Cy5-EGFR), EC50 ratio vs Reference Material; Ex. 2 Formulation 1 (10 mM histidine), T0, 5 C table
Description: as §1, with “EGFR” for “c-MET”, “RM.” for “Reference Material (RM).”
as §2, with “EGFR” for “c-MET”, “EGFR,” for “cMet,”, “human EGFR/ErbB1/HER1” for “cMet/HGFR”, “C-terminal His tag” for “c-terminal His-tag”, “EGFR.” for “c-MET.”, “Eu-labeled” for “Eu labeled”

[8] = molecular target: T1, recombinant cMet/HGFR with c-terminal …; experiment: competitive TR-FRET (Eu-amivantamab/Cy5-c-MET), EC50 ratio vs Reference Material; Ex. 11 drug product, 3 months at 40 C
Description: as §1, §2

cMET Binding % activity relative to RM [1]: 97%
EGFR Binding activity relative to Reference Material (%) [2]: 39%
EGFR Binding activity relative to Reference Material (%) [3]: 92%
cMET Binding % activity relative to RM [4]: 67%
EGFR Binding activity relative to Reference Material (%) [5]: 57%
EGFR Binding % activity relative to RM [6]: 41%
EGFR Binding % activity relative to RM [7]: 103%
cMET Binding activity relative to Reference Material (%) [8]: 78%
B1: amivantamab (bispecific antibody, human IgG1, kappa)
heavy 1: not shown
light 1: not shown
heavy 2: not shown
light 2: DIQMTQSPSSVSASVGDRVTITCRASQGISNWLAWFQHKPGKAPKLLIYAASSLLSGVPSRFSGSGSGTDFTLTISSLQPEDFATYYCQQANSFPITFGQGTRLEIKRTVAAPSVFIFPPSDEQLKSGTASVVCLLNNFYPREAKVQWKVDNALQSGNSQESVTEQDSKDSTYSLSSTLTLSKADYEKHKVYACEVTHQGLSSPVTKSFNRGEC
notes: The samples tested were high concentration (160 mg/mL) formulations, fresh or stored or stressed; also called JNJ-61186372; bispecific EGFR-cMet antibody
